# Reference: IntAct's records for PubMed 11777938
# B1: Anaphase-promoting complex subunit 8 (Schizosaccharomyces pombe (strain ATCC 38366 / 972)), O94556 (parent)
# chain: MTVSLNTMMGVDGLEDQEQLREIRNCLLKCISECSERGLVYAVRWAAEMLNGMNPIEMEHIPFSSTPTGEFDLDPDMANEKLLEVEEKNIYLLAKSYFDCKEFERAAYTLQNCKSSKSIFLRLYSKYLAGEKKSEEENETLLNTNLTLSSTNREFYYISEVLESLHYQGNKDPYLLYLSGVVYRKRKQDSKAIDFLKSCVLKAPFFWSAWLELSLSIDSLETLTTVVSQLPSTHIMTKIFYVYASHELHQVNSSAYEKLAEAEIIFPNSRYLKTQRALLTYDSRDFDEAESLFENILTNDPYRLDDMDTYSNVLFVLENKSKLGFLAQVASSIDKFRPETCSIIGNYYSLLSEHEKAVTYFKRALQLNRNYLSAWTLMGHEYVELKNTHAAIESYRLAVDVNRKDYRAWYGLGQTYEVLDMHFYALYYFQRATALRPYDQRMWQALGNCYEKIDRPQEAIKSYKRALLGSQTNSSILVRLGNLYEELQDLNSAASMYKQCIKTEETEISPETIKARIWLARWELGKKNYREAELYLSEVLNGDLELEEAKALLRELRSRMEHSYD
# partner: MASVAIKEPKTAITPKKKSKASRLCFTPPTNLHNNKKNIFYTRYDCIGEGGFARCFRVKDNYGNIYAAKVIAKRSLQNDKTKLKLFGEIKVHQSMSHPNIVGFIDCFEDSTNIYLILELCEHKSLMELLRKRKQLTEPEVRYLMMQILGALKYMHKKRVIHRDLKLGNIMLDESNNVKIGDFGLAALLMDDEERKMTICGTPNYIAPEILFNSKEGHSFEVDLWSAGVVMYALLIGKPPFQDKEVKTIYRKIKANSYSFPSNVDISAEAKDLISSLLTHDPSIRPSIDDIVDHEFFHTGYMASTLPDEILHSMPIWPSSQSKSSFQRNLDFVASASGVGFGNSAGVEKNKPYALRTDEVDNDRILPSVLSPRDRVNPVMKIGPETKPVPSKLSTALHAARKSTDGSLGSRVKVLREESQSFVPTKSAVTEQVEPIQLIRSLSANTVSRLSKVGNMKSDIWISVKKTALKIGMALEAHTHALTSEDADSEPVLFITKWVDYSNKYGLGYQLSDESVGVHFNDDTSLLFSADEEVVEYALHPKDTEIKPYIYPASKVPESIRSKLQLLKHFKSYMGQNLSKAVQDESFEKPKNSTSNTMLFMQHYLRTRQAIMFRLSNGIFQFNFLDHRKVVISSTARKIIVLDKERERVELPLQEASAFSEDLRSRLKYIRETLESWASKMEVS
# Variants of: B1
# Conditions: with plo1_schpo plo1, P50528
row,effect of a mutation on the interaction,Variant
1,decreasing interaction,S349N
